Molecular target: SARS-CoV-2 RBD, His6-tagged, for biolayer interferometry (SARS-CoV-2) (UniProt P0DTC2)
Experiment: BLI

Substance CR3022 Fab has a Kd of 46.3 nM.

Source: paper PMC8064889
